Source: patent US12099068B2, “Biomarkers for graft-versus-host disease” (Incyte Corporation, priority 2018, dated 2024)
“And” between values parts separate entries of the source, which are not always exact repeats. Identical values can stand only once.

B1: ARHGAP1 (protein, UniProt Q07960 1-439, looked up)
Rho GTPase-activating protein …: MDPLSELQDDLTLDDTSEALNQLKLASIDEKNWPSDEMPDFPKSDDSKSSSPELVTHLKWDDPYYDIARHQIVEVAGDDKYGRKIIVFSACRMPPSHQLDHSKLLGYLKHTLDQYVESDYTLLYLHHGLTSDNKPSLSWLRDAYREFDRKYKKNIKALYIVHPTMFIKTLLILFKPLISFKFGQKIFYVNYLSELSEHVKLEQLGIPRQVLKYDDFLKSTQKSPATAPKPMPPRPPLPNQQFGVSLQHLQEKNPEQEPIPIVLRETVAYLQAHALTTEGIFRRSANTQVVREVQQKYNMGLPVDFDQYNELHLPAVILKTFLRELPEPLLTFDLYPHVVGFLNIDESQRVPATLQVLQTLPEENYQVLRFLTAFLVQISAHSDQNKMTNTNLAVVFGPNLLWAKDAAITLKAINPINTFTKFLLDHQGELFPSPDPSGL
B2: APBB1IP (protein, UniProt Q7Z5R6 1-666, looked up)
Amyloid beta A4 precursor …: MGESSEDIDQMFSTLLGEMDLLTQSLGVDTLPPPDPNPPRAEFNYSVGFKDLNESLNALEDQDLDALMADLVADISEAEQRTIQAQKESLQNQHHSASLQASIFSGAASLGYGTNVAATGISQYEDDLPPPPADPVLDLPLPPPPPEPLSQEEEEAQAKADKIKLALEKLKEAKVKKLVVKVHMNDNSTKSLMVDERQLARDVLDNLFEKTHCDCNVDWCLYEIYPELQIERFFEDHENVVEVLSDWTRDTENKILFLEKEEKYAVFKNPQNFYLDNRGKKESKETNEKMNAKNKESLLEESFCGTSIIVPELEGALYLKEDGKKSWKRRYFLLRASGIYYVPKGKTKTSRDLACFIQFENVNIYYGTQHKMKYKAPTDYCFVLKHPQIQKESQYIKYLCCDDTRTLNQWVMGIRIAKYGKTLYDNYQRAVAKAGLASRWTNLGTVNAAAPAQPSTGPKTGTTQPNGQIPQATHSVSAVLQEAQRHAETSKDKKPALGNHHDPAVPRAPHAPKSSLPPPPPVRRSSDTSGSPATPLKAKGTGGGGLPAPPDDFLPPPPPPPPLDDPELPPPPPDFMEPPPDFVPPPPPSYAGIAGSELPPPPPPPPAPAPAPVPDSARPPPAVAKRPPVPPKRQENPGHPGGAGGGEQDFMSDLMKALQKKRGNVS
B3: CLM-1 (protein, UniProt Q8TDQ1 20-290, looked up)
CMRF35-like molecule 1: TQITGPTTVNGLERGSLTVQCVYRSGWETYLKWWCRGAIWRDCKILVKTSGSEQEVKRDRVSIKDNQKNRTFTVTMEDLMKTDADTYWCGIEKTGNDLGVTVQVTIDPAPVTQEETSSSPTLTGHHLDNRHKLLKLSVLLPLIFTILLLLLVAASLLAWRMMKYQQKAAGMSPEQVLQPLEGDLCYADLTLQLAGTSPQKATTKLSSAQVDQVEVEYVTMASLPKEDISYASLTLGAEDQEPTYCNMGHLSSHLPGRGPEEPTEYSTISRP
B4: ICAM1 (protein, UniProt P05362 28-532, looked up)
Intercellular adhesion …: QTSVSPSKVILPRGGSVLVTCSTSCDQPKLLGIETPLPKKELLLPGNNRKVYELSNVQEDSQPMCYSNCPDGQSTAKTFLTVYWTPERVELAPLPSWQPVGKNLTLRCQVEGGAPRANLTVVLLRGEKELKREPAVGEPAEVTTTVLVRRDHHGANFSCRTELDLRPQGLELFENTSAPYQLQTFVLPATPPQLVSPRVLEVDTQGTVVCSLDGLFPVSEAQVHLALGDQRLNPTVTYGNDSFSAKASVSVTAEDEGTQRLTCAVILGNQSQETLQTVTIYSFPAPNVILTKPEVSEGTEVTVKCEAHPRAKVTLNGVPAQPLGPRAQLLLKATPEDNGRSFSCSATLEVAGQLIHKNQTRELRVLYGPRLDERDCPGNWTWPENSQQTPMCQAWGNPLPELKCLKDGTFPLPIGESVTVTRDLEGTYLCRARSTQGEVTRKVTVNVLSPRYEIVIITVVAAAVIMGTAGLSTYLYNRQRKIKKYRLQQAQKGTPMKPNTQATPP
B5: CLEC1A (protein, UniProt Q8NC01 1-280, looked up)
C-type lectin domain family 1 …: MQAKYSSTRDMLDDDGDTTMSLHSQGSATTRHPEPRRTEHRAPSSTWRPVALTLLTLCLVLLIGLAALGLLFFQYYQLSNTGQDTISQMEERLGNTSQELQSLQVQNIKLAGSLQHVAEKLCRELYNKAGAHRCSPCTEQWKWHGDNCYQFYKDSKSWEDCKYFCLSENSTMLKINKQEDLEFAASQSYSEFFYSYWTGLLRPDSGKAWLWMDGTPFTSELFHIIIDVTSPRSRDCVAILNGMIFSKDCKELKRCVCERRAGMVKPESLHVPPETLGEGD
B6: PRKCQ (protein, UniProt Q04759 1-706, looked up)
Protein kinase C theta type: MSPFLRIGLSNFDCGSCQSCQGEAVNPYCAVLVKEYVESENGQMYIQKKPTMYPPWDSTFDAHINKGRVMQIIVKGKNVDLISETTVELYSLAERCRKNNGKTEIWLELKPQGRMLMNARYFLEMSDTKDMNEFETEGFFALHQRRGAIKQAKVHHVKCHEFTATFFPQPTFCSVCHEFVWGLNKQGYQCRQCNAAIHKKCIDKVIAKCTGSAINSRETMFHKERFKIDMPHRFKVYNYKSPTFCEHCGTLLWGLARQGLKCDACGMNVHHRCQTKVANLCGINQKLMAEALAMIESTQQARCLRDTEQIFREGPVEIGLPCSIKNEARPPCLPTPGKREPQGISWESPLDEVDKMCHLPEPELNKERPSLQIKLKIEDFILHKMLGKGSFGKVFLAEFKKTNQFFAIKALKKDVVLMDDDVECTMVEKRVLSLAWEHPFLTHMFCTFQTKENLFFVMEYLNGGDLMYHIQSCHKFDLSRATFYAAEIILGLQFLHSKGIVYRDLKLDNILLDKDGHIKIADFGMCKENMLGDAKTNTFCGTPDYIAPEILLGQKYNHSVDWWSFGVLLYEMLIGQSPFHGQDEEELFHSIRMDNPFYPRWLEKEAKDLLVKLFVREPEKRLGVRGDIRQHPLFREINWEELERKEIDPPFRPKVKSPFDCSNFDKEFLNEKPRLSFADRALINSMDQNMFRNFSFMNPGMERLIS
B7: DAB2 (protein, UniProt P98082 2-770, looked up)
Disabled homolog 2: SNEVETSATNGQPDQQAAPKAPSKKEKKKGPEKTDEYLLARFKGDGVKYKAKLIGIDDVPDARGDKMSQDSMMKLKGMAAAGRSQGQHKQRIWVNISLSGIKIIDEKTGVIEHEHPVNKISFIARDVTDNRAFGYVCGGEGQHQFFAIKTGQQAEPLVVDLKDLFQVIYNVKKKEEEKKKIEEASKAVENGSEALMILDDQTNKLKSGVDQMDLFGDMSTPPDLNSPTESKDILLVDLNSEIDTNQNSLRENPFLTNGITSCSLPRPTPQASFLPENAFSANLNFFPTPNPDPFRDDPFTQPDQSTPSSFDSLKSPDQKKENSSSSSTPLSNGPLNGDVDYFGQQFDQISNRTGKQEAQAGPWPFSSSQTQPAVRTQNGVSEREQNGFSVKSSPNPFVGSPPKGLSIQNGVKQDLESSVQSSPHDSIAIIPPPQSTKPGRGRRTAKSSANDLLASDIFAPPVSEPSGQASPTGQPTALQPNPLDLFKTSAPAPVGPLVGLGGVTVTLPQAGPWNTASLVFNQSPSMAPGAMMGGQPSGFSQPVIFGTSPAVSGWNQPSPFAASTPPPVPVVWGPSASVAPNAWSTTSPLGNPFQSNIFPAPAVSTQPPSMHSSLLVTPPQPPPRAGPPKDISSDAFTALDPLGDKEIKDVKEMFKDFQLRQPPAVPARKGEQTSSGTLSAFASYFNSKVGIPQENADHDDFDANQLLNKINEPPKPAPRQVSLPVTKSTDNAFENPFFKDSFGSSQASVASSQPVSSEMYRDPFGNPFA
B8: KIM1 (protein, UniProt Q96D42 21-364, looked up)
Hepatitis A virus cellular …: SVKVGGEAGPSVTLPCHYSGAVTSMCWNRGSCSLFTCQNGIVWTNGTHVTYRKDTRYKLLGDLSRRDVSLTIENTAVSDSGVYCCRVEHRGWFNDMKITVSLEIVPPKVTTTPIVTTVPTVTTVRTSTTVPTTTTVPMTTVPTTTVPTTMSIPTTTTVLTTMTVSTTTSVPTTTSIPTTTSVPVTTTVSTFVPPMPLPRQNHEPVATSPSSPQPAETHPTTLQGAIRREPTSSPLYSYTTDGNDTVTESSDGLWNNNQTQLFLEHSLLTANTTKGIYAGVCISVLVLLALLGVIIAKKYFFKKEVQQLSVSFSSLQIKALQNAVEKEVQAEDNIYIENSLYATD
B9: LYN (protein, UniProt P07948 2-512, looked up)
Tyrosine-protein kinase Lyn: GCIKSKGKDSLSDDGVDLKTQPVRNTERTIYVRDPTSNKQQRPVPESQLLPGQRFQTKDPEEQGDIVVALYPYDGIHPDDLSFKKGEKMKVLEEHGEWWKAKSLLTKKEGFIPSNYVAKLNTLETEEWFFKDITRKDAERQLLAPGNSAGAFLIRESETLKGSFSLSVRDFDPVHGDVIKHYKIRSLDNGGYYISPRITFPCISDMIKHYQKQADGLCRRLEKACISPKPQKPWDKDAWEIPRESIKLVKRLGAGQFGEVWMGYYNNSTKVAVKTLKPGTMSVQAFLEEANLMKTLQHDKLVRLYAVVTREEPIYIITEYMAKGSLLDFLKSDEGGKVLLPKLIDFSAQIAEGMAYIERKNYIHRDLRAANVLVSESLMCKIADFGLARVIEDNEYTAREGAKFPIKWTAPEAINFGCFTIKSDVWSFGILLYEIVTYGKIPYPGRTNADVMTALSQGYRMPRVENCPDELYDIMKMCWKEKAEERPTFDYLQSVLDDFYTATEGQYQQQP
B10: TNFRSF14 (protein, UniProt Q92956 39-283, looked up)
Tumor necrosis factor …: LPSCKEDEYPVGSECCPKCSPGYRVKEACGELTGTVCEPCPPGTYIAHLNGLSKCLQCQMCDPAMGLRASRNCSRTENAVCGCSPGHFCIVQDGDHCAACRAYATSSPGQRVQKGGTESQDTLCQNCPPGTFSPNGTLEECQHQTKCSWLVTKAGAGTSSSHWVWWFLSGSLVIVIVCSTVGLIICVKRRKPRGDVVKVIVSVQRKRQEAEGEATVIEALQAPPDVTTVAVEETIPSFTGRSPNH
B11: TNFRSF6B (protein, UniProt O95407 30-300, looked up)
Tumor necrosis factor …: VAETPTYPWRDAETGERLVCAQCPPGTFVQRPCRRDSPTTCGPCPPRHYTQFWNYLERCRYCNVLCGEREEEARACHATHNRACRCRTGFFAHAGFCLEHASCPPGAGVIAPGTPSQNTQCQPCPPGTFSASSSSSEQCQPHRNCTALGLALNVPGSSSHDTLCTSCTGFPLSTRVPGAEECERAVIDFVAFQDISIKRLQRLLQALEAPEGWGPTPRAGRAALQLKLRRRLTELLGAQDGALLVRLLQALRVARMPGLERSVRERFLPVH

System: plasma proteins
Assay: Plasma proteins modulated between baseline and day 28 in responders (CR, VGPR, PR; n = 19), Example 6 (Table 13)
Format: in vivo, human
Details: plasma protein (OLINK NPX); responders (CR, VGPR, PR; n = 19); itacitinib 200 mg or 300 mg QD with corticosteroids; day 28 vs baseline
How it was run: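 Plasma at baseline/screening and day 28 profiled for >1000 proteins by OLINK proximity extension assay, reported as NPX (log2). Steroid-naive and steroid-refractory patients pooled. Paired and unpaired t tests, ANOVA and Pearson correlation applied; significance at P<0.05.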

Molecule | Fold Change, Decreased Expression from Baseline to Day 28 | Fold Change, Increased Expression from Baseline to Day 28
B1 | −1.6039 | 
B2 | −1.4021 | 
B3 | −1.3921 | 
B4 | −1.354 | 
B5 | −1.2841 | 
B6 | −1.3251 | 
B7 | −1.2548 | 
B8 |  | 1.7741 and 1.757
B9 | −1.2337 | 
B10 | −1.2658 | 
B11 | −1.3504 | 
